Legend:
[1] = target: recombinant fragment of human VE-cadherin extracellular region, CAD 1-4 fragment (Asp48-Glu478, preceded by Met), SEQ ID NO: 4 (human) (UniProt P33151); test: sandwich ELISA, BV9 capture, rabbit polyclonal detection; CAD1-4 at 10 ng/mL
[2] = target: recombinant fragment of human VE-cadherin extracellular region, CAD 1-4 fragment (Asp48-Glu478, preceded by Met), SEQ ID NO: 4 (human) (UniProt P33151); test: as above; remark: listed apart in the source
[3] = target: recombinant fragment of human VE-cadherin extracellular region, CAD 1-4 fragment (Asp48-Glu478, preceded by Met), SEQ ID NO: 4 (human) (UniProt P33151); test: sandwich ELISA, BV9 capture, rabbit polyclonal detection; CAD1-4 at 2.5 ng/mL
[4] = target: recombinant fragment of human VE-cadherin extracellular region, CAD 1-4 fragment (Asp48-Glu478, preceded by Met), SEQ ID NO: 4 (human) (UniProt P33151); test: sandwich ELISA, BV9 capture, rabbit polyclonal detection; CAD1-4 at 0.63 ng/mL
[5] = target: recombinant fragment of human VE-cadherin extracellular region, CAD 1-4 fragment (Asp48-Glu478, preceded by Met), SEQ ID NO: 4 (human) (UniProt P33151); test: sandwich ELISA, BV9 capture, rabbit polyclonal detection; CAD1-4 at 1.25 ng/mL
[6] = target: recombinant fragment of human VE-cadherin extracellular region, CAD 1-4 fragment (Asp48-Glu478, preceded by Met), SEQ ID NO: 4 (human) (UniProt P33151); test: as above; remark: listed apart in the source
[7] = target: circulating (soluble) human VE-cadherin, 90 kDa form, in human serum or plasma (human) (UniProt P33151); test: western blot of healthy human serum diluted 1/500, BV9 tested from 0.02 to 1 µg/mL
[8] = target: recombinant fragment of human VE-cadherin extracellular region, CAD 1-4 fragment (Asp48-Glu478, preceded by Met), SEQ ID NO: 4 (human) (UniProt P33151); test: sandwich ELISA, BV9 capture, rabbit polyclonal detection; CAD1-4 at 10 ng/mL; second replicate
[9] = target: recombinant fragment of human VE-cadherin extracellular region, CAD 1-4 fragment (Asp48-Glu478, preceded by Met), SEQ ID NO: 4 (human) (UniProt P33151); test: sandwich ELISA, BV9 capture, rabbit polyclonal detection; CAD1-4 at 0.63 ng/mL; first replicate
[10] = target: recombinant fragment of human VE-cadherin extracellular region, CAD 1-4 fragment (Asp48-Glu478, preceded by Met), SEQ ID NO: 4 (human) (UniProt P33151); test: sandwich ELISA, BV9 capture, rabbit polyclonal detection; CAD1-4 at 1.25 ng/mL; first replicate
[11] = target: recombinant fragment of human VE-cadherin extracellular region, CAD 1-4 fragment (Asp48-Glu478, preceded by Met), SEQ ID NO: 4 (human) (UniProt P33151); test: sandwich ELISA, BV9 capture, rabbit polyclonal detection; CAD1-4 at 2.5 ng/mL; second replicate
[12] = target: recombinant fragment of human VE-cadherin extracellular region, CAD 1-4 fragment (Asp48-Glu478, preceded by Met), SEQ ID NO: 4 (human) (UniProt P33151); test: sandwich ELISA, BV9 capture, rabbit polyclonal detection; CAD1-4 at 5 ng/mL; mean OD minus OD at 0 ng/mL
[13] = target: recombinant fragment of human VE-cadherin extracellular region, CAD 1-4 fragment (Asp48-Glu478, preceded by Met), SEQ ID NO: 4 (human) (UniProt P33151); test: as above; remark: listed apart in the source
[14] = target: recombinant fragment of human VE-cadherin extracellular region, CAD 1-4 fragment (Asp48-Glu478, preceded by Met), SEQ ID NO: 4 (human) (UniProt P33151); test: sandwich ELISA, BV9 capture, rabbit polyclonal detection; CAD1-4 at 10 ng/mL; mean OD minus OD at 0 ng/mL
[15] = target: recombinant fragment of human VE-cadherin extracellular region, CAD 1-4 fragment (Asp48-Glu478, preceded by Met), SEQ ID NO: 4 (human) (UniProt P33151); test: sandwich ELISA, BV9 capture, rabbit polyclonal detection; CAD1-4 at 2.5 ng/mL; mean OD minus OD at 0 ng/mL
[16] = target: recombinant fragment of human VE-cadherin extracellular region, CAD 1-4 fragment (Asp48-Glu478, preceded by Met), SEQ ID NO: 4 (human) (UniProt P33151); test: sandwich ELISA, BV9 capture, rabbit polyclonal detection; CAD1-4 at 0.63 ng/mL; mean OD minus OD at 0 ng/mL
[17] = target: recombinant fragment of human VE-cadherin extracellular region, CAD 1-4 fragment (Asp48-Glu478, preceded by Met), SEQ ID NO: 4 (human) (UniProt P33151); test: sandwich ELISA, BV9 capture, rabbit polyclonal detection; CAD1-4 at 1.25 ng/mL; mean OD minus OD at 0 ng/mL
[18] = target: recombinant fragment of human VE-cadherin extracellular region, CAD 1-4 fragment (Asp48-Glu478, preceded by Met), SEQ ID NO: 4 (human) (UniProt P33151); test: sandwich ELISA, BV9 capture, rabbit polyclonal detection; CAD1-4 at 0.63 ng/mL; mean OD minus OD at 0 ng/mL; remark: listed apart in the source
[19] = target: recombinant fragment of human VE-cadherin extracellular region, CAD 1-4 fragment (Asp48-Glu478, preceded by Met), SEQ ID NO: 4 (human) (UniProt P33151); test: sandwich ELISA, BV9 capture, rabbit polyclonal detection; CAD1-4 at 1.25 ng/mL; mean OD minus OD at 0 ng/mL; remark: listed apart in the source

OD1 [1]: 1.76 OD | OD2 [1]: 1.76 OD | mean OD [1]: 1.76 OD | mean OD [2]: 1.95 OD | mean OD [3]: 1.17 OD | OD1 [4]: 0.794 OD | OD2 [4]: 0.789 OD | mean OD [4]: 0.792 OD | OD1 [5]: 0.867 OD | OD2 [5]: 0.829 OD | mean OD [5]: 0.848 OD | mean OD [6]: 1 OD | lowest mAb concentration giving detection [7]: 0.02 µg/mL | mAb concentration at signal plateau [7]: 0.1 to 1 µg/mL | OD [8]: 2 OD | OD [9]: 0.975 OD | OD [10]: 1.07 OD | OD [11]: 1.09 OD | Corr. OD [12]: 0.556 OD | Corr. OD [13]: 0.512 OD | Corr. OD [14]: 1.06 OD | Corr. OD [15]: 0.282 OD | Corr. OD [16]: 0.087 OD | Corr. OD [17]: 0.143 OD | Corr. OD [18]: 0.051 OD | Corr. OD [19]: 0.116 OD
Substance: anti-VEcadherin mouse mAb, clone BV9 (Abcam, product datasheet ab7047) (antibody)

Source: patent US20100120171A1
